From US20040053837A1 (LUDWIG INSTITUTE FOR CANCER RESEARCH, published 2004)

What was measured:
[1] = target: T1, human PDGF alpha-receptor (human, UniProt P16234 24-1089); assay: self-displacement standard curve, unlabeled PDGF-BB against 125I-PDGF-BB on PAE-1 cells expressing PDGF alpha-receptor
T1 construct: whole, on cells; also called PDGF receptor alpha; PDGFR-alpha
Protocol: (§1) Next, full length and truncated PDGF-C were tested for their capacity to bind to human PDGF receptors alpha and beta by analyzing their abilities to compete with PDGF-BB for binding to PDGF receptors. The binding experiments were performed on porcine aortic endothelial-1 (PAE-1) cells stably expressing the human PDGF receptors alpha and beta (Eriksson et al., EMBO J, 1992, 11, 543-550). Binding experiments were performed essentially as in Heldin et al. (EMBO J, 1988, 7:1387-1393). Different concentrations of human full-length and truncated PDGF-C, or human PDGF-BB were mixed with 5 ng/ml of ¹²⁵I-PDGF-BB in binding buffer (PBS containing 1 mg/ml of bovine serum albumin). Aliquots were incubated with the receptor expressing PAE-1 cells plated in 24-well culture dishes on ice for 90 minutes. After three washes with binding buffer, cell-bound ¹²⁵I -PDGF-BB was extracted by lysis of cells in 20 mM Tris-HCl, pH 7.5, 10% glycerol, 1% Triton X-100. The amount of cell bound radioactivity was determined in a gamma-counter. A standard curve for the binding of ¹²⁵I-labeled PDGF BB homodimers to PAE-1 cells expressing PDGF alpha-receptor is shown in FIG. 18. An increasing excess of the unlabeled protein added to the incubations competed efficiently with cell association of the radiolabeled tracer.

[2] = target: T1, human PDGF alpha-receptor; assay: competition with 125I-PDGF-BB on PAE-1 cells expressing human PDGF alpha-receptor
Protocol: as §1

[3] = target: T2, human PDGF beta-receptor (human, UniProt P09619 33-1106); assay: direct binding of 125I-labeled truncated PDGF-C to PAE-1 cells expressing PDGF beta receptor
T2 construct: whole, on cells; also called PDGF receptor beta; PDGFR-beta
Protocol: To assess the interactions between truncated PDGF-C and the PDGF alpha and beta receptors, truncated PDGF-C was tested for its capacity to bind to porcine aortic endothelial-1 (PAE-1) cells expressing PDGF alpha or beta receptors, respectively (Eriksson et al., EMBO J, 1992 11:543-550). The binding experiments were performed essentially as described in Heldin et al. (EMBO J, 1988 7:1387-1393). Five micrograms of truncated PDGF-C protein in ten microliters of sodium borate buffer was radiolabeled using the Bolton-Hunter reagent (Amersham) to a specific activity of 4×10⁵ cpm/ng. Different concentrations of radiolabeled truncated PDGF-C, with or without added unlabeled protein, in binding buffer (PBS containing 1 mg/ml of bovine serum albumin) was added to the receptor expressing PAE-1 cells plated in 24-well culture dishes on ice for 90 minutes. After three washes with binding buffer, cell-bound ¹²⁵I-labeled PDGF-C was extracted by lysis of cells in 20 mM Tris-HCl, pH 7.5, 10% glycerol, 1% Triton X-100. The amount of cell-bound radioactivity was determined in a gamma-counter. Non-specific binding was estimated by including a 100-fold molar excess of truncated PDGF-C in some experiments. […] The binding was specific as radiolabeled PDGF-C was quantitatively displaced by a 100-fold molar excess of unlabeled protein.

[4] = target: T3, VEGFR-2-Ig (human, UniProt P35968 20-764); assay: pull-down of 35S-labelled conditioned medium with receptor-Ig on protein A-Sepharose, SDS-PAGE, phosphorimager
T3 construct: extracellular domain; Transiently expressed in 293 EBNA cells and captured on protein A-Sepharose; also called soluble Ig-fusion protein containing the extracellular domain of human VEGFR-2; not shown: Ig part of the fusion
Protocol: (§2) To assess the interactions between full length and truncated PDGF-C and the VEGF receptors, full length and truncated PDGF-C were tested for their capacity to bind to soluble Ig-fusion proteins containing the extracellular domains of human VEGFR-1, VEGFR-2 and VEGFR-3 (Olofsson et al., Proc. Natl. Acad. Sci. USA, 1998 95:11709-11714). The fusion proteins, designated VEGFR-1-Ig, VEGFR-2-Ig and VEGFR-3-Ig, were transiently expressed in human 293 EBNA cells. All Ig fusion proteins were human VEGFRs. Cells were incubated for 24 hours after transfection, washed with Dulbecco's Modified Eagle Medium (DMEM) containing 0.2% bovine serum albumin and starved for 24 hours. The fusion proteins were then precipitated from the clarified conditioned medium using protein A-Sepharose beads (Pharmacia). The beads were combined with 100 microliters of 10× binding buffer (5% bovine serum albumin, 0.2% Tween 20 and 10 μg/ml heparin) and 900 microliter of conditioned medium from 293 cells that had been transfected with mammalian expression plasmids encoding full length or truncated PDGF-C or control vector, then metabolically labeled with ³⁵S-cysteine and methionine (Promix, Amersham) for 4 to 6 hours. After 2.5 hours, at room temperature, the Sepharose beads were washed 3 times with binding buffer at 4° C., once with phosphate buffered saline and boiled in SDS-PAGE buffer. Labeled proteins that were bound to the Ig-fusion proteins were analyzed by SDS-PAGE under reducing conditions. Radiolabeled proteins were detected using a phosphorimager analyzer.

[5] = target: T4, VEGFR-3-Ig (human, UniProt P35916 25-775); assay: as above
T4 construct: extracellular domain; Transiently expressed in 293 EBNA cells and captured on protein A-Sepharose; also called soluble Ig-fusion protein containing the extracellular domain of human VEGFR-3; not shown: Ig part of the fusion
T4 sequence (looked up): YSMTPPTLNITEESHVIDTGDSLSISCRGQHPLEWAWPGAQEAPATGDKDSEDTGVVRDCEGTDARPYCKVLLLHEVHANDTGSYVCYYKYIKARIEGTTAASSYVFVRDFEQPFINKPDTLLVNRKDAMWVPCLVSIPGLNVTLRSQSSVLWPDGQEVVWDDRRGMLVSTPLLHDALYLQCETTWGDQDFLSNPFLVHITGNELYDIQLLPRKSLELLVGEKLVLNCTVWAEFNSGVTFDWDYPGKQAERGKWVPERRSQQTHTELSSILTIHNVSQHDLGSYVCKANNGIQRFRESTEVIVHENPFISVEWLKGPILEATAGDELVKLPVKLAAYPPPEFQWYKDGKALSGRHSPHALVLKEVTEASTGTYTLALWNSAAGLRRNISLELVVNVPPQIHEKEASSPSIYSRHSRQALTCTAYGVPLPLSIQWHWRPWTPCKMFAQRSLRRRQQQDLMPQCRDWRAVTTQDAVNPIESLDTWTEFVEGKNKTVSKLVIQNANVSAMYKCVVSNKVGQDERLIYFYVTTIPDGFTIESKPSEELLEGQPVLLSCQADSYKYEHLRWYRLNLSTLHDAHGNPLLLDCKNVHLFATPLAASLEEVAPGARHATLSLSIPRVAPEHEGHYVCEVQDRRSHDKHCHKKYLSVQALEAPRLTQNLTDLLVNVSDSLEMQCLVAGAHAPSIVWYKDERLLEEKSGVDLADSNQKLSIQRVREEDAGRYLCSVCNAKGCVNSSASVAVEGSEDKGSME
Protocol: as §2

[6] = target: T5, VEGFR-1-Ig (human, UniProt P17948 27-758); assay: as above
T5 construct: extracellular domain; Transiently expressed in 293 EBNA cells and captured on protein A-Sepharose; The construct is cited from Olofsson et al. 1998; also called soluble Ig-fusion protein containing the extracellular domain of human VEGFR-1; not shown: Ig part of the fusion
Protocol: as §2

T1 sequence (P16234 24-1089): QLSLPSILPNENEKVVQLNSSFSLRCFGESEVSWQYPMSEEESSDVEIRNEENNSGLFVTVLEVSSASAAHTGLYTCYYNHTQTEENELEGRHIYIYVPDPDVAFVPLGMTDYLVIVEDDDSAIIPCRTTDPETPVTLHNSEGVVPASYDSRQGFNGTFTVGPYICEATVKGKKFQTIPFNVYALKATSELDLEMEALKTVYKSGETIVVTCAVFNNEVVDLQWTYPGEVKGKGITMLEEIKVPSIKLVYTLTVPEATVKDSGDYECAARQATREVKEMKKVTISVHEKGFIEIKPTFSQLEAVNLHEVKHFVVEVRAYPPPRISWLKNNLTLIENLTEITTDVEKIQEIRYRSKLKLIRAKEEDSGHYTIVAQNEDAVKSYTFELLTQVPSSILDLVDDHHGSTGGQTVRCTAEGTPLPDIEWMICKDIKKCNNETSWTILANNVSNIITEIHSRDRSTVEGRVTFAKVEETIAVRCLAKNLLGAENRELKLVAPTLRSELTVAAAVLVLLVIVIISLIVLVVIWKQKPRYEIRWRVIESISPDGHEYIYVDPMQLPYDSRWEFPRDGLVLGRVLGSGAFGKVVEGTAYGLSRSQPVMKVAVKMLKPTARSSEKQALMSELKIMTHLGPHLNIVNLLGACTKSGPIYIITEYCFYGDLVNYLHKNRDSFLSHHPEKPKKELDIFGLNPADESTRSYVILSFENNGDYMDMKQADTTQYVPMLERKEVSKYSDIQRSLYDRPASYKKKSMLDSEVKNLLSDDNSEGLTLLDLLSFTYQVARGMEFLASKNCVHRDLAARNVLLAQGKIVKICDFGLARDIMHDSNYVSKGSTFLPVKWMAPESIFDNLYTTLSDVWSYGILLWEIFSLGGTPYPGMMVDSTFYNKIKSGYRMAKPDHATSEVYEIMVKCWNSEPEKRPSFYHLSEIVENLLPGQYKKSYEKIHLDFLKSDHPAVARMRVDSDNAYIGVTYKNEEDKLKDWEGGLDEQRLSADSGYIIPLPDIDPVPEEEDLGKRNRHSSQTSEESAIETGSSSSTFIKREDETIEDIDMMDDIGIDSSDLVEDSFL
T2 sequence (P09619 33-1106): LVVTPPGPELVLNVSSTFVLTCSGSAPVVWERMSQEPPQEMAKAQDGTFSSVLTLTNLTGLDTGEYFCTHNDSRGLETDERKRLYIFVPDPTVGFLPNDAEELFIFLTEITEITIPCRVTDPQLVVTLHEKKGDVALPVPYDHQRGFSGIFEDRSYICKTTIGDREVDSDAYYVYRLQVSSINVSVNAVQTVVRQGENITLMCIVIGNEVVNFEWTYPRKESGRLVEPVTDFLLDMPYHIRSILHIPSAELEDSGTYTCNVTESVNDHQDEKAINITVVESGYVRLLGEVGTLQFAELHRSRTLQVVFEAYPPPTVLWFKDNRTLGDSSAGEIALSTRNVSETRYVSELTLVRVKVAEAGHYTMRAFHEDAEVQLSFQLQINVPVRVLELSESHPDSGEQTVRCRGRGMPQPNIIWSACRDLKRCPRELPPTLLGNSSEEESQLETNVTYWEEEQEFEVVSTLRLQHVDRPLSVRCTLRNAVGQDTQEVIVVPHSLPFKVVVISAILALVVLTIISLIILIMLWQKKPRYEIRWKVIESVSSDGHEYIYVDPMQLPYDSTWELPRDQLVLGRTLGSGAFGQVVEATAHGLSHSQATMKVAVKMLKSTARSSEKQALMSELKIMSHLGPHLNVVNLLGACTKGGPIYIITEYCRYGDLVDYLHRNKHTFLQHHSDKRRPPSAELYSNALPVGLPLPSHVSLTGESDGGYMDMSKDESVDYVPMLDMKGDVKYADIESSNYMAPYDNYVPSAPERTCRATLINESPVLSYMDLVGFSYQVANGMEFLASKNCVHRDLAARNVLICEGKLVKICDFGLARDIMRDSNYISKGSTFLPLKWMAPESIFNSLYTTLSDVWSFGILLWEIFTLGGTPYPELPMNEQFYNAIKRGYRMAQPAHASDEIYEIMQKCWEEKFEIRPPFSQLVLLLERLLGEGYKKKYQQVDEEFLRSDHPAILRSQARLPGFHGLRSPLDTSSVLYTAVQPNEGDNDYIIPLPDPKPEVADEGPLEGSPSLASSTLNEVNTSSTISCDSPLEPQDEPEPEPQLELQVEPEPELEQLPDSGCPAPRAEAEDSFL
T5 sequence (P17948 27-758): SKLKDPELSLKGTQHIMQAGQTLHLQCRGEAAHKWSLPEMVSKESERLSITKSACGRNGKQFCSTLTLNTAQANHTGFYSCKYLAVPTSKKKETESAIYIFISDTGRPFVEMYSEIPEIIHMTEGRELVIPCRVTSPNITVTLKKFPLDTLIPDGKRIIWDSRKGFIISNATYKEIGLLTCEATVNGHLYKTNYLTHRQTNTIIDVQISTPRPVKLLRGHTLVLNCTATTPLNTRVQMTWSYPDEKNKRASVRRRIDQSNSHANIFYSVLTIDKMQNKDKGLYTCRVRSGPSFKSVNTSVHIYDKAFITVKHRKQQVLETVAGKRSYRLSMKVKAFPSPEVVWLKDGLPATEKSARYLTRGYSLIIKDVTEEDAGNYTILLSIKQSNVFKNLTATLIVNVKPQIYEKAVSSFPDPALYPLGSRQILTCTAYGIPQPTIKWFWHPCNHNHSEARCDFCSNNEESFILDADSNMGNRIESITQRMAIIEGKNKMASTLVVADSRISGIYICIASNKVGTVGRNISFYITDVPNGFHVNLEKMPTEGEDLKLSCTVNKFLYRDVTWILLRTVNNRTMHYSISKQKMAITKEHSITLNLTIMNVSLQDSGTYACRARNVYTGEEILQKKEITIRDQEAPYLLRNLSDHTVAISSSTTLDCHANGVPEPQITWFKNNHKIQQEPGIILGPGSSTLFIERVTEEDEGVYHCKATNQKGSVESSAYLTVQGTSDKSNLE
T3 sequence (P35968 20-764): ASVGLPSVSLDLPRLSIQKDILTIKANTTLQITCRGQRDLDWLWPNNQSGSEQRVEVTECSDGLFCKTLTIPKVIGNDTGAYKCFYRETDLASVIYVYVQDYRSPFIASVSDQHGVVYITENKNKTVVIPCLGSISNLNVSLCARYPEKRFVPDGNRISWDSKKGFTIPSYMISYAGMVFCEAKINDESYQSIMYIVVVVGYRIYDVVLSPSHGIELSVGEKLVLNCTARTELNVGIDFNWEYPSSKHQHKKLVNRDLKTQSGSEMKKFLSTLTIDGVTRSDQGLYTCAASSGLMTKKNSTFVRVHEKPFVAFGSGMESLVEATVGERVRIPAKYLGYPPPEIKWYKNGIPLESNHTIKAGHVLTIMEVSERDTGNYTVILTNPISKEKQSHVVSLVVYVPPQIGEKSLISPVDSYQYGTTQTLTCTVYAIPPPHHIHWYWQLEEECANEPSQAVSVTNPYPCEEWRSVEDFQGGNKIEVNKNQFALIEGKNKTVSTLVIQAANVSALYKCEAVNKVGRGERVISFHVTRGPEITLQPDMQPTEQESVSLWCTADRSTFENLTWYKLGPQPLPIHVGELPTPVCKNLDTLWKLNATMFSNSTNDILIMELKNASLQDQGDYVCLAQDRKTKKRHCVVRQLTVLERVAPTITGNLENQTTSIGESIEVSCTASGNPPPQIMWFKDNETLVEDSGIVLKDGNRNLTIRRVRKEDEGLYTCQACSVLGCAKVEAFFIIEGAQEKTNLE

B1: human PDGF-BB homodimer (ligand, UniProt P01127 82-190, looked up)
chain: SLGSLTIAEPAMIAECKTRTEVFEISRRLIDRTNANFLVWPPCVEVQRCSGCCNNRNVQCRPTQVQLRPVQVRKIEIVRKKPIFKKATVTLEDHLACKCETVAAARPVT
modifications: 125I label on the tracer form
notes: also called labeled PDGF-BB
Question: Does B1 bind [1]?
Answer: Result: binds

B2: truncated human PDGF-CC homodimer, PDGF/VEGF homology domain only (core domain, residues 230-345; recombinant, baculovirus-infected Sf9 cells, C-terminal … (ligand, not shown: small tags and cut ends)
chain: GRKSRVVDLNLLTEEVRLYSCTPRNFSVSIREELKRTDTIFWPGCLLVKRCGGNCACCLHNCNECQCVPSKVTKKYHEVLQLRPKTGVRGLHKSLTDVALEHHEECDCVCRGSTGG
notes: Secreted disulfide-bonded dimer (36 kDa non-reduced, 24 kDa monomer); also called cPDGF-CC; truncated PDGF-C
Question: Does B2 bind [2]?
Answer: Result: binds

Question: Does B2 bind [3]?
Answer: Result: no binding

B3: truncated human PDGF-C expressed in 293 cells from a mammalian expression plasmid (35S-labelled conditioned medium) (ligand)
chain: GRKSRVVDLNLLTEEVRLYSCTPRNFSVSIREELKRTDTIFWPGCLLVKRCGGNCACCLHNCNECQCVPSKVTKKYHEVLQLRPKTGVRGLHKSLTDVALEHHEECDCVCRGSTGG
notes: also called truncated PDGF-C; radiolabeled PDGF-C
Question: Does B3 bind [4]?
Answer: Result: no binding

Question: Does B3 bind [5]?
Answer: Result: no binding

Question: Does B3 bind [6]?
Answer: Result: no binding
